This note sets out measurements from article doi:10.1101/2025.06.10.658867 (bioRxiv, 2025).

Numbering of substitutions follows the chain as printed. In names and notes the source's numbering stands.

The target of data set [1] is Siglec-10_(d1-d2) WT fused to human IgG1 Fc (Siglec-10Fc WT) (human, UniProt Q96LC7). In words: BLI. Background: In BLI a coated tip is dipped into the sample, and binding shifts an interference pattern.
Data set [2] concerns the molecule itself. Kind of data set: DNA-PAINT super-resolution microscopy with nearest-neighbour distance analysis.

B1: Fab portion of the anti-Siglec-10 mAb S10A (S10A Fab) (Fab, V domains shown)
VH: QIQLQQSGAELEKPGASVKMSCKASGYTFTSYWMHWVKQRPGQGLEWIGYINPDTDSTEYNQKFRDKATLTADKSSSTAYMQLSSLTSEDSAVYYCARPYYRYAGYAMDYWGQGTSVTVSS
VL: DIKMTQSPSSMYASLGERVTITCKASQDINSYLSWFQQKPGKSPKTLIYRANRLVDGVPSRFSGSGSGQVYSLTISSLEYEDLGIYYCLQYDEFPWTFGGGTKLEIK
As to B1, the dissociation constant (Kd) in data set [1] was 1.1 nM.

B2: intracellularly GFP-tagged Siglec-10 R127A in THP-1 cells (receptor, human, UniProt Q96LC7 17-697, looked up)
chain: MDGRFWIRVQESVMVPEGLCISVPCSFSYPRQDWTGSTPAYGYWFKAVTETTKGAPVATNHQSREVEMSTRGRFQLTGDPAKGNCSLVIRDAQMQDESQYFFRVERGSYVAYNFMNDGFFLKVTALTQKPDVYIPETLEPGQPVTVICVFNWAFEECPPPSFSWTGAALSSQGTKPTTSHFSVLSFTPRPQDHNTDLTCHVDFSRKGVSAQRTVRLRVAYAPRDLVISISRDNTPALEPQPQGNVPYLEAQKGQFLRLLCAADSQPPATLSWVLQNRVLSSSHPWGPRPLGLELPGVKAGDSGRYTCRAENRLGSQQRALDLSVQYPPENLRVMVSQANRTVLENLGNGTSLPVLEGQSLCLVCVTHSSPPARLSWTQRGQVLSPSQPSDPGVLELPRVQVEHEGEFTCHARHPLGSQHVSLSLSVHYSPKLLGPSCSWEAEGLHCSCSSQASPAPSLRWWLGEELLEGNSSQDSFEVTPSSAGPWANSSLSLHGGLSSGLRLRCEAWNVHGAQSGSILQLPDKKGLISTAFSNGAFLGIGITALLFLCLALIIMKILPKRRTQTETPRPRFSRHSTILDYINVVPTAGPLAQKRNQKATPNSPRTPLPPGAPSPESKKNQKKQYQLPSFPEPKSSTQAPESQESQEELHYATLNFPGVRPRPEARMPKGTQADYAEVKFQ
Consider B2, for which, in data set [2], the “mean percent dimers after tunicamycin” value was found to be 69%, the “mean percent dimers before tunicamycin” value was determined as 59% and the percent dimers came to 47%.

B3: intracellularly GFP-tagged Siglec-10 R119A in THP-1 cells (receptor, human, UniProt Q96LC7 17-697, looked up)
chain: B2 chain with R103A, A111R
Take B3: in data set [2], the “mean percent dimers after tunicamycin” value came out at 69%, the “mean percent dimers before tunicamycin” value was found to be 72% and the percent dimers was 69%.

B4: intracellularly GFP-tagged Siglec-10 WT in THP-1 cells (receptor, human, UniProt Q96LC7 17-697, looked up)
chain: B2 chain with A111R
In the case of B4, in data set [2], the “mean percent dimers after tunicamycin” value turned out to be 50%, the “mean percent dimers before tunicamycin” value is 61% and the percent dimers worked out at 67%.

What is called Kd is the equilibrium constant for the complex coming apart. A higher Kd goes with a looser complex.
